# Tested on: mouse ES cells (ES-D3)
# Assay: Hepatocyte-specific gene expression in differentiated mouse ES cells, real-time quantitative RT-PCR
# Details: mouse ES cells, IMDM, collagen type I, day 33, FIG. 2A
# Protocol: Mouse ES cell line ES-D3 and mouse STO fibroblasts were obtained from the American Type Culture Collection, Manassas, Va. ES cells were expanded on STO fibroblast feeder layers in Dulbecco's modified Eagle's medium (DMEM) (unless specified, cell culture supplies were from Invitrogen, Carlsbad, Calif.) containing 15% fetal bovine serum (FBS), 1 mM L-glutamine, 60 μM non-essential amino acid solution, 0.1 mM 2-mercaptoethanol, 10 mM HEPES (Sigma-Aldrich, Saint Louis, Mo.), 1400 U/ml leukemia inhibitory factor (LIF) (Chemicon International, Temecula, Calif.), and penicillin/streptomycin at standard concentrations. To prepare feeder layers, STO fibroblasts were cultured until confluent and treated with 10 μg/ml mitomycin C (Sigma-Aldrich) for 4 hours. […]
# Total RNA was extracted with RNeasy Mini Kit (Qiagen, Valencia, Calif.). Real time quantitative RT-PCR was employed for the determination of gene expression as described in detail previously by our group (Wege, H. et al., Gastroenterology 124:432-444 (2003)). […] Relative mouse or human gene expression analysis (ΔΔCT) was performed by real-time quantitative PCR with the ABI Prism 7700 Sequence Detection System and SYBR PCR Green Master Mix or TaqMan PCR Master Mix (Applied Biosystems, Foster City, Calif.). […] Normalized expression of hepatocyte-specific genes was compared to levels detected in primary adult mouse or human hepatocytes.
molecule,measurement,value
"OnM: oncostatin M (protein, UniProt P13725 26-221, looked up) Oncostatin-M: AAIGSCSKEYRVLLGQLQKQTDLMQDTSRLLDPYIRIQGLDVPKLREHCRERPGAFPSEETLRGLGRRGFLQTLNATLGCVLHRLADLEQRLPKAQDLERSGLNIEDLEKLQMARPNILGLRNNIYCMAQLLDNSDTAEPTKAGRGASQPPTPTPASDAFQRKLEGCRFLHGYHRFMHSVGRVFSKWGESPNRSRR",albumin gene expression (effect of individual growth and differentiation factors),only minor positive or even negative effects

# Source: US20050170502A1, “Methods for maintaining hepatocytes in culture and for differentiating embryonic stem cells along a hepatocyte lineage” (REGENTS OF THE UNIVERSITY OF CALIFORNIA, priority 2003, published 2005)
